Test results: US20260049134A1 (UNIVERSITY OF FLORIDA RESEARCH FOUNDATION, published 2026)

T1: CADM1, endogenous in H929 multiple myeloma cells (human, UniProt Q9BY67 45-442)
T1 construct: Native protein on H929 cells (flow cytometry, siRNA knockdown) and in H929 lysates (IP/MS); RPMI-8226 cells were used for sorting with HW-97; also called IGSF4A
T1 sequence: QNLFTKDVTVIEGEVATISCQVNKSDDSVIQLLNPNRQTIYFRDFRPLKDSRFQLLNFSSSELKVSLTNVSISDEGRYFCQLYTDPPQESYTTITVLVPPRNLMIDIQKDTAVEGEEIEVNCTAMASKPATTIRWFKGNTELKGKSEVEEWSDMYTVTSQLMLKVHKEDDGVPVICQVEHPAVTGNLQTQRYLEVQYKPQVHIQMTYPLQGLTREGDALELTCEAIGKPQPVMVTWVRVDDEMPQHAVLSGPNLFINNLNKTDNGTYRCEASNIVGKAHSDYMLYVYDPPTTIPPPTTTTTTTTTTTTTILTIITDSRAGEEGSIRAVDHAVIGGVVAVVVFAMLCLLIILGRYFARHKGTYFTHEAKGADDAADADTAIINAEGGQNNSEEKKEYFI

B1: TH9-0022 (antibody, human IgG1, kappa, L234A L235A, V domains shown)
VH: QSLEESGGRLVTPGTPLTLTCTVSGFSLSSYAMNWVRQAPGKGLEWIGIINSYGSTYYASWAKGRFTISKTSTTVDLKITSPTTEDTATYFCARVTYDSYGYGYAPYGMDLWGPGTLVTVSS
VL: LVMTQTPSSTSNAVGGTVTIKCQASQSIGNVLAWYQQKPGQPPKLLIYAASTLASGVPSRVGGSRSGTEYTLTISGVQREDAATYYCLGSDSDSDIAFGGGTELEILR
notes: also called TH9-022; negative control
B2: HW-42 chimeric rabbit-human IgG1 LA/LA/PG (antibody, V domains shown)
VH: QSVKESEGGLFKPADTLTLTCTVSGFSLSSNEISWVRQAPGEGLEYIGIIDTGGRAYYAVWARSRSTITRNTNLNTVTLKMTSLTAADTATYFCARGGVDTEWYAFSSWGPGTLVTVPS
VL: SFVLTQPASVQVNLGQTVSLTCTADTLSRRYASWYQQKPGQAPVLLIFRDTSRPSGVPDRFSGSSSGDTATLTISGAQAGDEADYYCATSDGSGSNYQYVFGGGTQLTVTG
notes: Fc-silenced (L234A/L235A/P329G) IgG1, lambda; Alexa Fluor 647-labeled in single-step flow cytometry; Cluster C-1
B3: HW-70 chimeric rabbit-human IgG1 LA/LA/PG (antibody, V domains shown)
VH: QSLEESGGRLVTPGTPLTLTCTVSGFSLSSNAMSWVRQAPGKGLEWIGTIDGYGYTYYASWAKGRFTVSKTSTTVDLKITSPTTEDTATYFCAREIYLGSNFWGPGTLVTISS
VL: SFVLTQPASVQVNLGQTVSLTCTADTLSRRYASWYQQKPGQAPVLLIYRDTSRPSGVPDRFSGSSSGNTATLTISGAQAGDEADYYCATADGSGSSYQFVFGGGTQLTVTG
notes: as for B2
B4: HW-25 chimeric rabbit-human IgG1 LA/LA/PG (antibody, V domains shown)
VH: QSLEESGGRLVTPGTPLTLTCTVSGFSLSSYAMGWVRQAPGKGLEWIGIIDSRGSTYYATWAKGRFTISKTSTTVDLKITSPTTEDTATYFCAREDSYYYDSFNLWGPGTLVTVSS
VL: SFVLTQPASVQVNLGQTVSLTCTADTLSRRYASWYQQKPGQAPVLLIYRDTSRPSGVPDRFSGSSSGNTATLTISGAQAGDEADYYCATSDGSGSSYQCVFGGGTQLTVTG
notes: as for B2
B5: HW-1 chimeric rabbit-human IgG1 LA/LA/PG (antibody, V domains shown)
VH: QSLEESGGGLFKPTDTLTLTCTASGFSLGSSYAISWVRQAPGKELEWIGTIDSGRAYYARWAKSRSTITRNTNENTVTLKMTSLTAADTATYFCARDLIPTYSQDIWGPGTLVTISS
VL: SFVLTQPASVQVNLGQTVSLTCTADTLSRRYASWYQQKPGQAPVLLIYRDTSRPSGVPDRFSGSSSGNTATLTISGAQAGDEADYYCATSDGSGNSYQYVFGGGTQLTVTS
notes: Fc-silenced (L234A/L235A/P329G) IgG1, lambda; Alexa Fluor 647-labeled in single-step flow cytometry; Prototype of cluster C-1
B6: HW-17 chimeric rabbit-human IgG1 LA/LA/PG (antibody, V domains shown)
VH: QSLGESRGRLVTPDETLTLTCTVSGIDLSSNAMSWVRQAPGEGLEWIGTINTGGRAYYASWAKGRFTISRTSTTVDLKMTSLTTEDTATYFCARERYSDGRAYDIWGPGTLVTISS
VL: SFVLTQPASVQVNLGQTVSLTCTADTLSRRYASWYQQKPGQAPVLLIYTDSNRPSGIPDRFSGSSSGNTATLTISGAQAGDEADYYCATDDGSGSIYQYVFGGGTQLTVTG
notes: as for B2
B7: HW-97 chimeric rabbit-human IgG1 LA/LA/PG (antibody, V domains shown)
VH: QKQLVESGGRLVTPGTPLTLTCTVTGIDLSSHGMSWVRQAPGKGLEWIGVIYPSGSTWYASWARGRFTISKTSTTVDLKMTSLTTEDTATHFCARGDVGGADNNIWGPGTLVTVSS
VL: SFVLTQPASVQVDLGQTVSLTCTAETLSRSYASWYQQKPGQAPVLLIYRDTSRPSGVPDRFSGSSSGNTATLTISGAQAGDEADYYCATSDGSGSSYQYVFGGGTQLTVTG
notes: Fc-silenced (L234A/L235A/P329G) IgG1, lambda; Alexa Fluor 647-labeled in single-step flow cytometry; Prototype of cluster C-97
B8: HW-113 chimeric rabbit-human IgG1 LA/LA/PG (antibody, V domains shown)
VH: QKQLVESGGGLVQPGGSLTLTCTVSGFSLNKYYMGWFRQAPGKGLEWIGVISRSGDTYYSSWAKGRFTISKASTTVDLRITSPTTEDTATYFCARDASSPGFHGDRLDLWGQGTLVTVSS
VL: SFVLTQPASVQVNLGQTVSLTCTADTLSRSYASWYQQKPGQAPVLLIYRDTSRPSGVPDRFSGSSSGNTATLTISGAQAGDEADYYCATSDGIGSNYLWVFGGGTQLTVTG
notes: Fc-silenced (L234A/L235A/P329G) IgG1, lambda; Alexa Fluor 647-labeled in single-step flow cytometry
B9: HW-45 chimeric rabbit-human IgG1 LA/LA/PG (antibody, V domains shown)
VH: QKQLVESGGRLVTPGTPLTLTCTVSGFSLSSYAMGWFRQAPGKGLEWIGIINSYGSTYYASWAKGRFTISKTSTTVDLKITSPTTEDTATYFCGRRIGSARFDPWGPGTLVTVSS
VL: SFVLTQPASVQVNLGQTVSLTCTADTLSRSYASWYQQKPGQAPVLLIYRDTRRPSGVPDRFSGSSSGNTATLTISGAQAGDEADYYCATSDGSGSSYRLVFGGGTQLTVTG
notes: Fc-silenced (L234A/L235A/P329G) IgG1, lambda; Alexa Fluor 647-labeled in single-step flow cytometry; Prototype of cluster C-45
B10: TH9-0022 (antibody, human IgG1, kappa, L234A L235A, V domains shown)
VH: QSLEESGGRLVTPGTPLTLTCTVSGFSLSSYAMNWVRQAPGKGLEWIGIINSYGSTYYASWAKGRFTISKTSTTVDLKITSPTTEDTATYFCARVTYDSYGYGYAPYGMDLWGPGTLVTVSS
VL: LVMTQTPSSTSNAVGGTVTIKCQASQSIGNVLAWYQQKPGQPPKLLIYAASTLASGVPSRVGGSRSGTEYTLTISGVQREDAATYYCLGSDSDSDIAFGGGTELEILR
notes: also called TH9-022; negative control IgG1

Tests used:
[1] = target: T1, CADM1, endogenous in H929 multiple …; assay: flow cytometry, H929 + NT Green siRNA; None 416
[2] = target: T2, PTPRG, endogenous in H929 multiple myeloma cells (human, UniProt P23470 20-1445); assay: flow cytometry, H929 + CADM1 siRNA; None 449
T2 construct: Native protein on H929 cells (flow cytometry, siRNA knockdown) and in H929 lysates (IP/MS); also called phosphatase receptor type γ

[3] = target: T2, PTPRG, endogenous in H929 multiple …; assay: flow cytometry, H929 + ICAM1 siRNA; None 455
[4] = target: T2, PTPRG, endogenous in H929 multiple …; assay: flow cytometry, H929 + PTPRG siRNA (target knocked down); None 2.13
Protocol: Recombinant purified ECDs (50-150 ng) of each putative target protein were coated, incubated with 150 ng of the indicated primary antibody, and binding was detected using a peroxidase-conjugated anti-human Fab secondary antibody. Heatmap represents averages of technical triplicates. (8B) Target validation via siRNA knockdown. H929 cells were transfected with siRNA pools targeting the putative antibody targets ICAM1, CADM1, and PTPRG. Cells were then subjected to cognate IgG binding analysis via flow cytometry. (NT, non-targeting siRNA).
Staining protocol. Cells were harvested (5×10⁴ cells per sample), washed once with phosphate-buffered saline (PBS) at RT, and a second time with ice-cold FACS buffer (PBS, 0.5% BSA, 2 mM EDTA, 0.1% NaN₃). Cells were stained in 50 μL of primary antibody for 30 min on ice, washed twice with 100 μL FACS buffer, stained with 50 μL of diluted secondary antibody, washed two more times in FACS, and then resuspended in 50 μL FACS buffer. Samples were acquired on an Accuri C6 Plus or a BD FACSCanto II flow cytometer (both from BD Biosciences). Data were analyzed using FlowJo version 10 software. Primary antibodies: Fab (10 μg/mL), IgG1 (0.1 to 50 μg/mL), or 25 μL polyclonal Fabs from periplasmic extracts. Polyclonal Fabs were produced by diluting bacterial stocks by a factor of 100 in autoinduction media and incubating overnight to induce expression as previously described. […] Viability stains: DAPI (Cell Signaling Technology) or SYTOX AADvanced Dead Cell Stain (Thermo Fisher Scientific). Labeling: The panel of chimeric rabbit/human IgG1s was labeled using the Alexa Fluor 647 Labeling Kit (Thermo Fisher Scientific, #A20173) to facilitate single-step staining. Competition: Unlabeled IgG1s were added at saturating concentrations of 60 μg/mL to block the target receptors, incubating on ice for 30 min, followed by the addition of an equal volume of the Alexa Fluor 647 labeled antibody at 2 μg/mL, and the mixture was incubated on ice for another 30 min.

[5] = target: T3, ICAM1, endogenous in H929 multiple myeloma cells (human, UniProt P05362 28-532); assay: IP from H929 cell lysate, LC-MS/MS, heatmap
T3 construct: Native protein on H929 cells (flow cytometry, siRNA knockdown) and in H929 lysates (IP/MS); also called CD54
Protocol: (§1) Immunoprecipitation. […] After 30 min of rocking at 4° C., and lysates were centrifuged at 18,400×g for 20 min at 4° C. Subsequently, 1-mL aliquots of the supernatants were pre-cleared twice with Protein G agarose (Thermo Fisher Scientific) by adding 50 μL of 50% resin slurry and incubating 30 min with end-over-end tumbling at 4° C., followed by centrifugation at 16,000×g for 5 min and pooling of the pre-cleared cell lysate aliquots. Representative mAbs from each cluster were immobilized on Protein G agarose at a ratio of 25 μg IgG1 per 30 μL of 50% slurry, diluted to 500 μL with Dulbecco's PBS (DPBS) and incubated for 1 h at 4° C. with tumbling, followed by centrifugation at 5,000×g for 30 s and 2 washes with lysis buffer. After the last wash, the ˜15 μL of IgG1-coated resin was blocked with 10 μL of 10% BSA (MilliporeSigma). Next, 1 mL of the pooled pre-cleared cell lysate was added to the IgG1-coated resin and incubated for 3 h at 4° C. with tumbling. The immune complexes were pelleted by centrifugation at 2,500×g at 4° C. for 30 s, and gently resuspended to wash for 3 min in 1 mL of lysis buffer, which was repeated once with lysis buffer and twice with an identical wash buffer lacking Triton X-100. Finally, the immune complexes were eluted from the resin with three batch-wise steps using 30 μL of elution buffer (6 or 8 M urea (MilliporeSigma), 20 mM Tris-HCl pH 7.5, and 100 mM NaCl) and incubating 15 min at RT with 450 rpm orbital agitation. Finally, 16 μL of the eluate (˜20%) was analyzed on a reducing SDS-PAGE gel stained with SYPRO Ruby dye (Bio-Rad Laboratories), while the rest was stored at −80° C. prior to LC-MS/MS analysis.
(§2) Protein elutions in 6 or 8 M urea were reduced with 15 mM dithiothreitol at 56° C. for 30 min followed by alkylation with 30 mM iodoacetamide in the dark at RT. The elutions were then diluted to 1 M urea with 50 mM ammonium bicarbonate pH 7.8 and digested overnight at 37° C. following the addition of 4 μg trypsin (Promega).

[6] = target: T1, CADM1, endogenous in H929 multiple …; assay: IP from H929 cell lysate, LC-MS/MS, heatmap
Protocol: as §1, §2

[7] = target: T2, PTPRG, endogenous in H929 multiple …; assay: IP from H929 cell lysate, LC-MS/MS, heatmap
Protocol: as §1, §2

T2 sequence (P23470 20-1445 limits assumed): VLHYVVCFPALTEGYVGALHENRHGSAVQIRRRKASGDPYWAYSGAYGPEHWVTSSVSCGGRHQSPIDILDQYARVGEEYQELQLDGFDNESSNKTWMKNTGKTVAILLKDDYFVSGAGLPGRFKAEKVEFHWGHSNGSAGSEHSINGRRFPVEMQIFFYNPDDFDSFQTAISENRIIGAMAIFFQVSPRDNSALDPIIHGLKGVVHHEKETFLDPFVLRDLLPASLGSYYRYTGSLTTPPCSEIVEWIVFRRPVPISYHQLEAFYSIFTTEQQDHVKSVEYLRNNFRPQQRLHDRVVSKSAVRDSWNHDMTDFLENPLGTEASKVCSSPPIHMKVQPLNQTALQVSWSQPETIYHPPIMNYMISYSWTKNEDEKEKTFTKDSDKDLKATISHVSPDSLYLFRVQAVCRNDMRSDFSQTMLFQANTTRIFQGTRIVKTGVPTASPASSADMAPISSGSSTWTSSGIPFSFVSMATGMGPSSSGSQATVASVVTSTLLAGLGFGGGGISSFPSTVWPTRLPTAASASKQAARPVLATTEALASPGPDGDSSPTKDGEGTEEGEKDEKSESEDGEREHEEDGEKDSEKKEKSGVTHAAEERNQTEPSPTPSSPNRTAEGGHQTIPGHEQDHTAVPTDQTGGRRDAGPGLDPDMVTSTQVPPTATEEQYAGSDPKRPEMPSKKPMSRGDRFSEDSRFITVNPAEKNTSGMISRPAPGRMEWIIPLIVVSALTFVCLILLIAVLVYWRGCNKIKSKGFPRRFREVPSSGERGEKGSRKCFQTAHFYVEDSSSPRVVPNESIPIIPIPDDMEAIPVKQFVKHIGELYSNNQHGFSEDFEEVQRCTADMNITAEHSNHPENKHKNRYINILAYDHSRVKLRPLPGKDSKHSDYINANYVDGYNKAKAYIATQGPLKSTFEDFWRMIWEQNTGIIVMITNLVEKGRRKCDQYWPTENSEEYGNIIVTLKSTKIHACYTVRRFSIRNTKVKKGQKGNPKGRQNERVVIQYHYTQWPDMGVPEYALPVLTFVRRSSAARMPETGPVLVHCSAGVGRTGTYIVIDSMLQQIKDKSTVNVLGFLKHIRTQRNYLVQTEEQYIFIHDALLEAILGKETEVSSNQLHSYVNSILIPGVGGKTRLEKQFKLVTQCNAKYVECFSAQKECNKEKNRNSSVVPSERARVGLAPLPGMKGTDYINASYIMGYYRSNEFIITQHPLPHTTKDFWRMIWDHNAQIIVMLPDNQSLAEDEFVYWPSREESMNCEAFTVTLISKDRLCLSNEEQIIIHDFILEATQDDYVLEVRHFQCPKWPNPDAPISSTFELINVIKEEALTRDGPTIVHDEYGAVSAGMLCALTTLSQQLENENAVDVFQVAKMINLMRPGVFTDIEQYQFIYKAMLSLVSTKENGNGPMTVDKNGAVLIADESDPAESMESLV
T3 sequence (P05362 28-532 limits assumed): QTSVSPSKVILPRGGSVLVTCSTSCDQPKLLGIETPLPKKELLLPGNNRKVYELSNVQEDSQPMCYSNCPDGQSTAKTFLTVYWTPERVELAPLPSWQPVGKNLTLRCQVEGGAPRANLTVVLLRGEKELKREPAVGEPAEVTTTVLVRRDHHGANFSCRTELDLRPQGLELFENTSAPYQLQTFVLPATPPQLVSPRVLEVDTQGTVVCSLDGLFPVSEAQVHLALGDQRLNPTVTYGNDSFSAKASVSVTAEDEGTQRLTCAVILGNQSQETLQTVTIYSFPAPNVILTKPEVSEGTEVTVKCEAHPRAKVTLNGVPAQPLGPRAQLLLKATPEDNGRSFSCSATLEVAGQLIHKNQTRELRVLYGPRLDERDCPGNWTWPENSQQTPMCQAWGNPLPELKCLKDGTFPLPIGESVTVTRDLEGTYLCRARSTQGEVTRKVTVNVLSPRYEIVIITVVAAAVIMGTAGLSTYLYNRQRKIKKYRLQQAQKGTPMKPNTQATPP

Binder | mAb binding (MFI) [1] | mAb binding (MFI) [2] | mAb binding (MFI) [3] | Cells stained (%) [4] [%] | binding result [5] | binding result [6] | binding result [7]
B1 | 483 |  |  |  |  |  | 
B2 |  | 9210 | 12100 | 0.55 |  |  | 
B3 |  | 13800 | 17900 | 0.87 |  |  | 
B4 |  | 8720 | 11400 | 0.87 |  |  | 
B5 |  | 17500 | 24500 | 1.2 | no binding | no binding | 
B6 |  | 21000 | 28000 | 1.25 |  |  | 
B7 | 9600 |  |  |  |  |  | 
B8 |  |  |  |  |  | no binding | no binding
B9 |  |  |  |  | no binding | no binding | no binding
B10 |  |  |  |  | no binding | no binding | 
